Earlier results, collected in paper PMC8900292.

Target: VAMP2 juxtamembrane LD (UniProt P63027)
Chain of UniProt P63027 (P63027 whole entry, looked up): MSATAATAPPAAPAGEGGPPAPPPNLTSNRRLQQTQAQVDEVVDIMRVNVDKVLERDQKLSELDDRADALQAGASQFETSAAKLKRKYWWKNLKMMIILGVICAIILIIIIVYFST

Question: Which Kd does the source give for Munc13-1 MUN (from UniProt Q62768) here?
Answer: 10 µM
